Measurements published in patent US20240207427A1, “SELECTIVE DRUG RELEASE FROM INTERNALIZED CONJUGATES OF BIOLOGICALLY ACTIVE COMPOUNDS” (priority 2021, published 2024).

Tests used:
[1] = target: T1, neutrophil elastase (Homo sapiens, UniProt P08246); experiment: Neutrophil elastase assay of ADCs; assay type: biochemical; settings: 8-load ADC, 37 C, 3 h, pH 7.5, FIG. 6A
T1 sequence (P08246 30-267): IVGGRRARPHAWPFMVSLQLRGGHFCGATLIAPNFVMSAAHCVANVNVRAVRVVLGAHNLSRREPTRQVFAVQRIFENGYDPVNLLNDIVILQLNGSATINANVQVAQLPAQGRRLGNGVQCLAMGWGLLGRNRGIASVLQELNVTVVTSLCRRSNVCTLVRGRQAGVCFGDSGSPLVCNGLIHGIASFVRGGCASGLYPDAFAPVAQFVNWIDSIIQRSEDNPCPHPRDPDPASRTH
Method: To a mixture of 8-load ADC (5 ug), buffer (100 mM tris, 75 mM NaCl, pH 7.5; final concentration), and neutrophil elastase (100 ng) was added water to 20 uL. The reaction was incubated at 37 C for 3 h and then immediately analyzed by a QToF mass spectrometer.

[2] = test system: acute myeloid leukemia cells (MOLM-13); experiment: In vitro potency (CellTiter-Glo, 96 h), MOLM-13; assay type: cell-based; settings: Homo sapiens, MOLM-13, 96 h, read-out: MOLM-13 IC50, Table 28; CPT free drugs; acute myeloid leukemia cells MOLM-13; 96 h, CellTiter-Glo
Method in brief: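 Log-phase cells were seeded for 24 h in RPMI 1640 with 20% FBS, then exposed to serially diluted antibody-drug conjugates or free camptothecin drug for 4 days at 37 °C. Growth inhibition was read by luminescence, and IC50 values were reported in ng/mL and nmol/L.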

[3] = test system: non-small-cell lung cancer cells (Calu1); experiment: In vitro potency (CellTiter-Glo, 96 h), Calu1; assay type: cell-based; settings: Homo sapiens, Calu-1, 96 h, read-out: Calu1 IC50
Method in brief: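 IC50 (ng/mL) was derived from growth inhibition of STR-authenticated lines held in culture under 2 months after thawing. Cells were grown in RPMI 1640 plus 20% FBS and treated with ADC dilution series for 96 h at 37 °C.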

[4] = test system: HPAFII cell line (Ag1 upregulated); experiment: In vitro cytotoxicity of Ag1 ADCs, HPAFII cells; assay type: cell-based; settings: in words, Tables 5a and 5b
Method: In vitro cytotoxicity. The cytotoxicity of a tripeptide-based Antibody Drug Conjugate was measured by a cell proliferation assay employing the protocol described in Promega Corp. Technical Bulletin TB288; and Mendoza et al., 2002, Cancer Res. 62:5485-5488), the methods of which are specifically incorporated by reference herein. Briefly, an aliquot of 40 μl of cell culture containing about 400 cells in medium is deposited in each well of a 384-well, opaque-walled plate. A 10 μL aliquot of free drug or Ligand-Drug Conjugate is added to the experimental wells and incubated for 96 h and are then equilibrated to room temperature for approximately 30 minutes whereupon a volume of CellTiter-Glo™ reagent equal to the volume of cell culture medium present in each well is added. The contents are mixed for 2 minutes on an orbital shaker to induce cell lysis and the plate is incubated at room temperature for 10 minutes to stabilize the luminescence signal for recordation.
The italicized values in Tables 5, 5a, and 5b indicate the percentage of cells remaining after 96 hr incubation at the maximum concentration of drug added. For convenience the numbering for the library members of Tables 5 and 5A are retained for the corresponding Drug linker compounds that are incorporated into the ADC of Tables 5, 5a, and 5b.

[5] = test system: h00-37, non-binding control antibody h00 conjugated with mp-val-cit-PABC-MMAE (compound 37)
[6] = test system: h00-5, non-binding control antibody h00 conjugated with mp-D-Leu-Ala-Glu-PABC-MMAE (Drug Linker compound 5)
[7] = test system: h00-7, non-binding control antibody h00 conjugated with mp-Leu-Ala-Glu-PABC-MMAE (Drug Linker compound 7)

CC[C@@]1(O)C(=O)OCc2c1cc1n(c2=O)Cc2c-1nc1cc3c(cc1c2CN)CC=C3 [Compound 5]
percentage of drug cleaved from the heavy chain by neutrophil elastase [1]: lower than that found for non-targeted ADC 37 | IC50 [2]: 0.258 µM | IC50 [3]: 0.129 µM

CC[C@@]1(O)C(=O)OCc2c1cc1n(c2=O)Cc2c-1nc1cc3c(cc1c2CN(C)CCCN)OCO3 [Compound 8, (5S)-14-[[3-aminopropyl(methyl)amino]methyl]-5-ethyl-S-hydroxy-7,18,20-trioxa-11,24-diazahexacyclo [11.11.0.02,11.04,9.015,23.017,21]tetracosa-1(13),2,4(9),14,16,21,23-heptaene-6,10-dione; 2,2,2-trifluoroacetic acid]
cytotoxicity compared with comparator dipeptide-based ADC (1) [4]: less cytotoxic | efficacy compared with comparator dipeptide-based ADC (1) [4]: similarly efficacious

Cathepsin B
percentage of drug cleaved from the heavy chain (QToF mass spectrometry after 3 h at 37 C, pH 4.5) [5]: percentage of drug cleaved from the heavy chain of non-targeted ADCs 5 and 7 in vitro by Cathepsin B is similar to that found for non-targeted ADC 37 | percentage of drug cleaved from the heavy chain (QToF mass spectrometry after 3 h at 37 C, pH 4.5) [6]: percentage of drug cleaved from the heavy chain of non-targeted ADCs 5 and 7 in vitro by Cathepsin B is similar to that found for non-targeted ADC 37 | percentage of drug cleaved from the heavy chain (QToF mass spectrometry after 3 h at 37 C, pH 4.5) [7]: percentage of drug cleaved from the heavy chain of non-targeted ADCs 5 and 7 in vitro by Cathepsin B is similar to that found for non-targeted ADC 37

neutrophil elastase
percentage of drug cleaved from the heavy chain (QToF mass spectrometry after 3 h at 37 C) [5]: percentage of drug cleaved from the heavy chain of non-targeted ADC 5 in vitro by neutrophil elastase is lower than that found for non-targeted ADC 37 | percentage of drug cleaved from the heavy chain (QToF mass spectrometry after 3 h at 37 C) [6]: no proteolosis of h00-5 by neutrophil elastase was observed | percentage of drug cleaved from the heavy chain (QToF mass spectrometry after 3 h at 37 C) [7]: the h00-5 conjugate ... has its heavy chain cleaved by neutrophil elastase to a significantly lower extent than h00-7
